Drawing on PMC10397247, this text covers interaction score for 3 molecules.

The target of assay [1] is T1, P6-AA-12HGe-S.
T1 chain: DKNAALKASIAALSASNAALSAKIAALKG
In words: two-hybrid library CCmax.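 Also: natural log of median RNA to DNA barcode read ratio; higher means stronger binding.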 As to conditions: mean of both orientations.

Assay [2] concerns the target T2, P6-AA-12HGe-M.
T2 chain: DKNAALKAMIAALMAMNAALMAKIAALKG
In words: two-hybrid library CCmax.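 Also: natural log of median RNA to DNA barcode read ratio; higher means stronger binding.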 As to conditions: mean of both orientations.

Assay [3] addresses T3, P6-AA-12HGe-T.
T3 chain: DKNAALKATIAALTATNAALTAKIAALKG
In words: two-hybrid library CCmax.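 Also: natural log of median RNA to DNA barcode read ratio; higher means stronger binding.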 As to conditions: mean of both orientations.

For assay [4], the target named is T4, P6-AA-12HGe-A.
T4 chain: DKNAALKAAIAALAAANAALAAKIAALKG
In words: two-hybrid library CCmax.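 Also: natural log of median RNA to DNA barcode read ratio; higher means stronger binding.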 The settings on record: mean of both orientations.

The target in assay [5] is T5, P6-AA-12HGe-R.
T5 chain: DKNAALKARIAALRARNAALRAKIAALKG
Kind of assay: two-hybrid library CCmax.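 Also: natural log of median RNA to DNA barcode read ratio; higher means stronger binding.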 As to conditions: mean of both orientations.

Assay [6] addresses T6, P6-AA-12HGe-D.
T6 chain: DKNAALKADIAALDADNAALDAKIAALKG
Kind of assay: two-hybrid library CCmax.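 Also: natural log of median RNA to DNA barcode read ratio; higher means stronger binding.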

Assay [7] addresses T7, P6-AA-12HGe-H.
T7 chain: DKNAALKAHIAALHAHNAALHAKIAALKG
In words: two-hybrid library CCmax. The settings on record: mean of both orientations.

Assay [8] concerns the target T8, P6-AA-12HGe-Q.
T8 chain: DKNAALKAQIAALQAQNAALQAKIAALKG
In words: two-hybrid library CCmax. As to conditions: mean of both orientations.

Assay [9] deals with T9, P6-AA-12HGe-K.
T9 chain: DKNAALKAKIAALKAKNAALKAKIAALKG
In words: two-hybrid library CCmax. As to conditions: mean of both orientations.

The target of assay [10] is T10, P6-AA-12HGe-W.
T10 chain: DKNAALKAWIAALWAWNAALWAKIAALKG
In words: two-hybrid library CCmax. As to conditions: mean of both orientations.

The target of assay [11] is T11, 4H741-bA.
T11 chain: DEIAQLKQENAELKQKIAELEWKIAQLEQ
Kind of assay: two-hybrid library CCNG1.

The target of assay [12] is T12, 4H3628-bA.
T12 chain: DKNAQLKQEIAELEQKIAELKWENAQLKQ
Kind of assay: two-hybrid library CCNG1.

For assay [13], the target named is T13, 4H348-bA.
T13 chain: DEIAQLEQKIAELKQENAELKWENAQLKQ
Kind of assay: two-hybrid library CCNG1.

For assay [14], the target named is T14, 4H906-bA.
T14 chain: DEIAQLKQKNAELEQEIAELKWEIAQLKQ
In words: two-hybrid library CCNG1.

Assay [15] concerns the target T15, 4H477-bA.
T15 chain: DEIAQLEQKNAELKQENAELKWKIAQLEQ
In words: two-hybrid library CCNG1.

The target in assay [16] is T16, 4H626-bA.
T16 chain: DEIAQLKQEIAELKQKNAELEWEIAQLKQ
Kind of assay: two-hybrid library CCNG1.

Assay [17] concerns the target T17, 4H3613-bA.
T17 chain: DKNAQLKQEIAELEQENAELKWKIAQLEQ
In words: two-hybrid library CCNG1.

The target in assay [18] is T18, 4H3298-bA.
T18 chain: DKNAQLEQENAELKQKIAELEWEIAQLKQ
In words: two-hybrid library CCNG1.

Assay [19] concerns the target T19, 4H591-bA.
T19 chain: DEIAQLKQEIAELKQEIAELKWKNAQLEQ
Kind of assay: two-hybrid library CCNG1.

In assay [20] the target is T20, 4H492-bA.
T20 chain: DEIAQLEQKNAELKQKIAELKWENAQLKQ
In words: two-hybrid library CCNG1.

Assay [21] addresses T21, 4H3926-bA.
T21 chain: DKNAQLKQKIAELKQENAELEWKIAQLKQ
In words: two-hybrid library CCNG1.

Assay [22] deals with T22, 4H3277-bA.
T22 chain: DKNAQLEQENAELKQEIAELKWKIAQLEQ
Kind of assay: two-hybrid library CCNG1.

Assay [23] addresses T23, 4H3497-bA.
T23 chain: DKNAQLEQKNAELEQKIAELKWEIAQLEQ
Kind of assay: two-hybrid library CCNG1.

Assay [24] deals with T24, 4H3462-bA.
T24 chain: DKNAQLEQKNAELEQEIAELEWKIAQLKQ
In words: two-hybrid library CCNG1.

Assay [25] has as its target T25, 4H40-bA.
T25 chain: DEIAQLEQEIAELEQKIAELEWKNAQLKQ
Kind of assay: two-hybrid library CCNG1.

The target in assay [26] is T26, 4H3497-bN.
T26 chain: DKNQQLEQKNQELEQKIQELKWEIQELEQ
In words: two-hybrid library CCNG1.

In assay [27] the target is T27, O8-bP.
T27 chain: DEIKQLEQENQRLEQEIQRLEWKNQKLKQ
Kind of assay: two-hybrid library CCNG1.

Assay [28] addresses T28, 4H3628-bN.
T28 chain: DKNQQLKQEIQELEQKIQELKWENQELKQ
Kind of assay: two-hybrid library CCNG1.

In assay [29] the target is T29, 4H3926-bN.
T29 chain: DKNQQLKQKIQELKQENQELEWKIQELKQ
Kind of assay: two-hybrid library CCNG1.

Assay [30] deals with T30, 4H906-bN.
T30 chain: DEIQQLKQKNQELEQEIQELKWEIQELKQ
In words: two-hybrid library CCNG1.

In assay [31] the target is T31, 4H591-bN.
T31 chain: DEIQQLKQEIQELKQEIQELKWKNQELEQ
In words: two-hybrid library CCNG1.

In assay [32] the target is T32, 4H3462-bN.
T32 chain: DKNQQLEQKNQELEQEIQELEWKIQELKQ
Kind of assay: two-hybrid library CCNG1.

The target in assay [33] is T33, 4H626-bN.
T33 chain: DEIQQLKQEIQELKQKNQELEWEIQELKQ
Kind of assay: two-hybrid library CCNG1.

The target in assay [34] is T34, 4H3613-bN.
T34 chain: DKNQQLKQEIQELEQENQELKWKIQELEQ
In words: two-hybrid library CCNG1.

B1: P5-AA-12HGe-M (peptide)
chain: DENAALEAMIAALMAMNAALMAEIAALEG
Consider B1, for which the interaction score is -0.47 in assay [1]; 0.995 in [2]; 1.54 in assay [3]; 1.15 in [4]; 0.594 in assay [5]; -1.48 in assay [6]. The interaction score was -0.103 in [7], 2.16 in assay [8], 1.12 in [9] and -0.0463 in assay [10].

B2: 4H3277-bA (peptide)
chain: DKNAQLEQENAELKQEIAELKWKIAQLEQ
Regarding B2, the interaction score in assay [11] was -1.81; in assay [12] it was -0.955; in assay [13], -0.856; in [14] it was -0.838; in [15], -0.644; in [16], -0.429. Also, the interaction score in assay [17] is -0.514; in assay [18], -0.215; in [19], -1.19; in assay [20], -0.379; in assay [21], -0.539; in assay [22] it was 1.38. Further, the interaction score in assay [23] was -0.961; in assay [24] it was -0.372; in assay [25], -1.08.

B3: 4H3462-bN (peptide)
chain: DKNQQLEQKNQELEQEIQELEWKIQELKQ
In the case of B3, the interaction score is 0.781 in assay [26]; -2.6 in [27]; 0.522 in [28]; -0.216 in assay [29]; -0.328 in [30]; -0.826 in assay [31]. Further, the values for the interaction score in [32], in [33] and in assay [34] were 0.127, 0.696 and -0.0373, respectively.
